Measured values from article doi:10.1101/2021.12.15.472832.

Biological target: mouse PARP13 ZnF5-WWE1-WWE2 (residues 476 to 673) (mouse) (UniProt Q3UPF5)
Experiment: SEC-MALS

- percent of the scattering mass in the dimer peak: 4%
- stoichiometry N: 2
Substance: mouse PARP13 ZnF5-WWE1-WWE2 (residues 476 to 673) (from UniProt Q3UPF5 476-673) (domain or fragment)
